# Assay: soluble on expression in E. coli; label from the status in PepcDB or PDB records
row,Sequence,soluble on expression in E. coli
1,MIKFMSIASGSSGNCYYLSNGNQALLIDAGIPLRSISKALKDHQLPIEGNVVGVLVTHDHADHIRTIGCLGEKFHLPVFATERVHNGINSSRYMDHLPLLSRRNILQEETFRLAGFDITAFPIPHDATENVGYHITAPGFSFTLCTDVGHITDTISHYASKADYLVMEANYDCEMLLSGPYPEFLKERVSGPNGHLSNQETGDFLARTFHPGMKHVWLCHLSKDNNHPDLCWKSIEYRLFSEGIRVGKDMELTVLKRTSPSSLYTLLEDLEHHHHHH,soluble
2,MSLLRLTSVVGIGHAEDPNPRFRKQMEDVCVMIDKLGNSHSTGFFAIYDGHGGQEAARIAGDNLHRYLLEDLLNQKLEHLLEADPLANQSMSQPTCSQAGSKLSSDGHNLSGNPSGVPKDSQLTNATMSSGVRTGTFSKDKISPSAKVRVPVPPNEPSKLGAIIRKAIQRTDDVLRQKNVLYVGCTALIALVTKYTIEFASVGDSRAVISINGTAYRCTEDHKASDKLEIDRIKSLGGTVIFGRVNGFISVSRALGDHCIKNLVTCDPFLRSYPRYPTPDSVGVTASSTNELDEFIIMACDGVWDVVTDQQSVDTVRKCLKETGSPQKAAFELKNLAIRSGTQDNVSVLVLLLREINKWEGHHHHHH,soluble
3,MIQVENLTKTINNQMILEDISIDIEKGKLTSLIGPNGAGKSTLLSAICRLIRFENGEVKIDGQLMSDYKNNDLSKKISILKQTNHTEMNITVEQLVNFGRFPYSKGRLTKEDHDIVNDALDLLQLQDIRNRNIKSLSGGQRQRAYIAMTIAQDTEYILLDEPLNNLDMKHAVQIMQTLKMLAHKMNKAIVIVLHDINFASCYSDQIVALKNGQLVKSDLKDNVIQSSVLSDLYDMNIQIEHIRNQRICLYFKD,not soluble
4,MGSDKIHHHHHHMIPIEIDSGSGFCFGVVNAIRHAEKQLEKSSDKLYCLGDIVHNTLEVERLGKKGLETIDYDAFSRLRGAKVLLRAHGEPPEIYRMAGENGVTIIDATCPVVLRLQNKIKSRYEATRSLGAQVVIYGKRGHAEVNGLVGQTEGTAIVIESEEELDKIDYTRPVILFSQTTKSLEGFGQIIDSISTRMQPGVTFEHHDTICRQVANRIPHIGAFATAHELVFFVAGEKSSNGKVLFGHCLAANPRSIFISSPEVIVPDMLVPLPASIGICGATSTPRWQMEEVASHIKALL,not soluble
5,MLELVQKGITPEDAITAGKKARKYFELTYYVMPGLGGRERSEQHAVNTARVINKAQPTFVRLRTLTVIEGTPIEKLVGKEITLLGPVEQLEEVRRLVEEIKVETLLLSDHVSNYLFTRSGPIFFGVSGKLPDEKEQMLEQVDDAIKTVKLLEESGERVFNSNDMYRMGLIGL,not soluble
6,MKRILVVFLMLAIILAGCSNKGEKYQKDIDKVYKEQNQMNKIASKVQNTIKTDIKQEDSNTHVYKDGKVIVIGIQLYKDREKMYYFAYEIKDGKAEINREIDPIKYMKDHKADYEDENVEVEKDMAGDPLEHHHHHH,not soluble
7,MSLENLKNIQPREDFNWEEFEAGGVHAAVSRQEQEAAYDKTLNTIKEKEVVMGRVTAINKREVVINVGYKSEGVVPATEFRYNPELKVGDEVEVYIENQEDKKGQLVLSHRKARAARSWERVNEALEKDEIVKGYVKCRTKGGMIVDVFGIEAFLPGSQIDVRPIRDYDAFVEKTMEFKIVKINQEYKNVVVSHKVLIEAELEQQKKEIIGKLEKGQVLEGIVKNITSYGVFIDLGGVDGLIHITDLSWGRVAHPEEIVQLDQKINVVILDFDEDRKRIALGLKQLMPHPWDALDSELKVGDKVKGKVVVMADYGAFVEIAQGVEGLIHVSEMSWTQHLRSAQDFLHVGDEVEAVILTLDREERKMSLGLKQLKPDPWADIETRFPVGSRHHARVRNFTNFGVFVEIEEGVDGLIHISDLSWTKKIKHPSEFTEVGADIEVQVIEIDKENRRLSLGHKQLEENPWDVFETVFTVGSIHEGTVIEVMDKGAVVSLPYGVEGFATPKHMVKEDGSQAVLEEKLPFKVIEFNKDAKRIIVSHSRVFEDEQKMAQREANAERKAEAKAAQKEAAAEAANPAQAVEKATLGDLGELAALKEKLSENEGHHHHHH,soluble

# Reference: the DeepSol protein solubility set
